According to patent US20130316941A1 (Boehringer Ingelheim, published 2013):
Starred links: 1 amine or outer side, 2 acyl side, 3 side chain; linkers in the order of their positions; H or OH if unused. Non-standard residues stand in square brackets, D forms with d. Groups on a side chain read outwards from the residue. *: point of attachment. γGlu = O=C(O)[C@H](CCC(=O)[*:2])N[*:1]; Palmitoyl = CCCCCCCCCCCCCCCC(=O)*

What was measured:
[1] = target: human glucagon receptor (Glucagon-R) (human, UniProt P47871 26-477); assay: cell-based or functional assay
[2] = target: human glucagon-like peptide 1 receptor (GLP-1R) (human, UniProt P43220 24-463); assay: cell-based or functional assay

Sequence of human glucagon receptor (Glucagon-R) (P47871 26-477): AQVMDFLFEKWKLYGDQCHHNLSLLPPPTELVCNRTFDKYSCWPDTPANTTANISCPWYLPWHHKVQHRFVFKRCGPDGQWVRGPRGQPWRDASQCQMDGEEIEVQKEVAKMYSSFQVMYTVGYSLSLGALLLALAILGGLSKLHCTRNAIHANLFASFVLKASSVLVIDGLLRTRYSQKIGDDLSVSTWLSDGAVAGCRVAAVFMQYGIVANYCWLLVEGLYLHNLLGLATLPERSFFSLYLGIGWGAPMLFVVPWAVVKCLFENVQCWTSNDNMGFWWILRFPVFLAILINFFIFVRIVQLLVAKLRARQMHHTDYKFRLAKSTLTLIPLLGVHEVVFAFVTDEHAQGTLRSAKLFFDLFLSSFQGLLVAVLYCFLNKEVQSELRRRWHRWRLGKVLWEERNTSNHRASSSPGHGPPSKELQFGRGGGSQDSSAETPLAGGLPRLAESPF

Binder	EC50 values for cAMP generation in HEK293 cells expressing Glucagon receptor [1]	EC50 values for cAMP generation in HEK293 cells expressing GLP-1 receptor [2]
H-H[dS]QGTFTSDYSRYLDEK([γGlu-Palmitoyl])RARDFIEWLLSA-NH2 [H-H-DSer-QGTFTSDYSRYLDE-K(Hexadecanoyl-isoGlu)-RARDFIEWLLSA-NH2 [Compound 8]]	0.2 nM	0.2 nM
HSHGTFTSDYSRYLDEKRARDFIEWLLSA (HELM PEPTIDE1{H.S.H.G.T.F.T.S.D.Y.S.R.Y.L.D.E.K.R.A.R.D.F.I.E.W.L.L.S.A.[am]}|PEPTIDE2{[CCCCCCCCCCCCCCCC(=O)[*:2]].[gGlu]}$PEPTIDE1,PEPTIDE2,17:R3-2:R2$$$V2.0; SMILES CCCCCCCCCCCCCCCC(=O)N[C@@H](CCC(=O)NCCCC[C@H](NC(=O)[C@H](CCC(=O)O)NC(=O)[C@H](CC(=O)O)NC(=O)[C@H](CC(C)C)NC(=O)[C@H](Cc1ccc(O)cc1)NC(=O)[C@H](CCCNC(=N)N)NC(=O)[C@H](CO)NC(=O)[C@H](Cc1ccc(O)cc1)NC(=O)[C@H](CC(=O)O)NC(=O)[C@H](CO)NC(=O)[C@@H](NC(=O)[C@H](Cc1ccccc1)NC(=O)[C@@H](NC(=O)CNC(=O)[C@H](Cc1c[nH]cn1)NC(=O)[C@H](CO)NC(=O)[C@@H](N)Cc1c[nH]cn1)[C@@H](C)O)[C@@H](C)O)C(=O)N[C@@H](CCCNC(=N)N)C(=O)N[C@@H](C)C(=O)N[C@@H](CCCNC(=N)N)C(=O)N[C@@H](CC(=O)O)C(=O)N[C@@H](Cc1ccccc1)C(=O)N[C@H](C(=O)N[C@@H](CCC(=O)O)C(=O)N[C@@H](Cc1c[nH]c2ccccc12)C(=O)N[C@@H](CC(C)C)C(=O)N[C@@H](CC(C)C)C(=O)N[C@@H](CO)C(=O)N[C@@H](C)C(N)=O)[C@@H](C)CC)C(=O)O) [H-HSHGTFTSDYSRYLDE-K(Hexadecanoyl-isoGlu)-RARDFIEWLLSA-NH2 [Compound 10]]	0.06 nM	0.47 nM
HXQGTFTSDYSKYLDKRRAKDFIEWLLSA (HELM PEPTIDE1{H.[Aib].Q.G.T.F.T.S.D.Y.S.K.Y.L.D.K.R.R.A.K.D.F.I.E.W.L.L.S.A.[am]}|PEPTIDE2{[CCCCCCCCCCCCCCCC(=O)[*:2]].[gGlu]}$PEPTIDE1,PEPTIDE2,16:R3-2:R2$$$V2.0; SMILES CCCCCCCCCCCCCCCC(=O)N[C@@H](CCC(=O)NCCCC[C@H](NC(=O)[C@H](CC(=O)O)NC(=O)[C@H](CC(C)C)NC(=O)[C@H](Cc1ccc(O)cc1)NC(=O)[C@H](CCCCN)NC(=O)[C@H](CO)NC(=O)[C@H](Cc1ccc(O)cc1)NC(=O)[C@H](CC(=O)O)NC(=O)[C@H](CO)NC(=O)[C@@H](NC(=O)[C@H](Cc1ccccc1)NC(=O)[C@@H](NC(=O)CNC(=O)[C@H](CCC(N)=O)NC(=O)C(C)(C)NC(=O)[C@@H](N)Cc1c[nH]cn1)[C@@H](C)O)[C@@H](C)O)C(=O)N[C@@H](CCCNC(=N)N)C(=O)N[C@@H](CCCNC(=N)N)C(=O)N[C@@H](C)C(=O)N[C@@H](CCCCN)C(=O)N[C@@H](CC(=O)O)C(=O)N[C@@H](Cc1ccccc1)C(=O)N[C@H](C(=O)N[C@@H](CCC(=O)O)C(=O)N[C@@H](Cc1c[nH]c2ccccc12)C(=O)N[C@@H](CC(C)C)C(=O)N[C@@H](CC(C)C)C(=O)N[C@@H](CO)C(=O)N[C@@H](C)C(N)=O)[C@@H](C)CC)C(=O)O) [H-H-Aib-QGTFTSDYSKYLD-K(Hexadecanoyl-isoGlu)-RRAKDFIEWLLSA-NH2 [Compound 1]]	0.15 nM	0.12 nM
HXHGTFTSDYSRYLDEKRARDFIEWLLSA (HELM PEPTIDE1{H.[Aib].H.G.T.F.T.S.D.Y.S.R.Y.L.D.E.K.R.A.R.D.F.I.E.W.L.L.S.A.[am]}|PEPTIDE2{[CCCCCCCCCCCCCCCC(=O)[*:2]].[gGlu]}$PEPTIDE1,PEPTIDE2,17:R3-2:R2$$$V2.0; SMILES CCCCCCCCCCCCCCCC(=O)N[C@@H](CCC(=O)NCCCC[C@H](NC(=O)[C@H](CCC(=O)O)NC(=O)[C@H](CC(=O)O)NC(=O)[C@H](CC(C)C)NC(=O)[C@H](Cc1ccc(O)cc1)NC(=O)[C@H](CCCNC(=N)N)NC(=O)[C@H](CO)NC(=O)[C@H](Cc1ccc(O)cc1)NC(=O)[C@H](CC(=O)O)NC(=O)[C@H](CO)NC(=O)[C@@H](NC(=O)[C@H](Cc1ccccc1)NC(=O)[C@@H](NC(=O)CNC(=O)[C@H](Cc1c[nH]cn1)NC(=O)C(C)(C)NC(=O)[C@@H](N)Cc1c[nH]cn1)[C@@H](C)O)[C@@H](C)O)C(=O)N[C@@H](CCCNC(=N)N)C(=O)N[C@@H](C)C(=O)N[C@@H](CCCNC(=N)N)C(=O)N[C@@H](CC(=O)O)C(=O)N[C@@H](Cc1ccccc1)C(=O)N[C@H](C(=O)N[C@@H](CCC(=O)O)C(=O)N[C@@H](Cc1c[nH]c2ccccc12)C(=O)N[C@@H](CC(C)C)C(=O)N[C@@H](CC(C)C)C(=O)N[C@@H](CO)C(=O)N[C@@H](C)C(N)=O)[C@@H](C)CC)C(=O)O) [H-H-Aib-HGTFTSDYSRYLDE-K(Hexadecanoyl-isoGlu)-RARDFIEWLLSA-NH2 [Compound 12]]	0.14 nM	0.06 nM
HXPGTFTSDYSRYLDEKRARDFIEWLLSA (HELM PEPTIDE1{H.[dS].P.G.T.F.T.S.D.Y.S.R.Y.L.D.E.K.R.A.R.D.F.I.E.W.L.L.S.A.[am]}|PEPTIDE2{[CCCCCCCCCCCCCCCC(=O)[*:2]].[gGlu]}$PEPTIDE1,PEPTIDE2,17:R3-2:R2$$$V2.0; SMILES CCCCCCCCCCCCCCCC(=O)N[C@@H](CCC(=O)NCCCC[C@H](NC(=O)[C@H](CCC(=O)O)NC(=O)[C@H](CC(=O)O)NC(=O)[C@H](CC(C)C)NC(=O)[C@H](Cc1ccc(O)cc1)NC(=O)[C@H](CCCNC(=N)N)NC(=O)[C@H](CO)NC(=O)[C@H](Cc1ccc(O)cc1)NC(=O)[C@H](CC(=O)O)NC(=O)[C@H](CO)NC(=O)[C@@H](NC(=O)[C@H](Cc1ccccc1)NC(=O)[C@@H](NC(=O)CNC(=O)[C@@H]1CCCN1C(=O)[C@@H](CO)NC(=O)[C@@H](N)Cc1c[nH]cn1)[C@@H](C)O)[C@@H](C)O)C(=O)N[C@@H](CCCNC(=N)N)C(=O)N[C@@H](C)C(=O)N[C@@H](CCCNC(=N)N)C(=O)N[C@@H](CC(=O)O)C(=O)N[C@@H](Cc1ccccc1)C(=O)N[C@H](C(=O)N[C@@H](CCC(=O)O)C(=O)N[C@@H](Cc1c[nH]c2ccccc12)C(=O)N[C@@H](CC(C)C)C(=O)N[C@@H](CC(C)C)C(=O)N[C@@H](CO)C(=O)N[C@@H](C)C(N)=O)[C@@H](C)CC)C(=O)O) [H-H-DSer-PGTFTSDYSRYLDE-K(Hexadecanoyl-isoGlu)-RARDFIEWLLSA-NH2 [Compound 14]]	0.19 nM	0.12 nM
HXHGTFTSDYSRYLDEKRARDFIEWLLSA (HELM PEPTIDE1{H.[dS].H.G.T.F.T.S.D.Y.S.R.Y.L.D.E.K.R.A.R.D.F.I.E.W.L.L.S.A.[am]}|PEPTIDE2{[CCCCCCCCCCCCCCCC(=O)[*:2]].[gGlu]}$PEPTIDE1,PEPTIDE2,17:R3-2:R2$$$V2.0; SMILES CCCCCCCCCCCCCCCC(=O)N[C@@H](CCC(=O)NCCCC[C@H](NC(=O)[C@H](CCC(=O)O)NC(=O)[C@H](CC(=O)O)NC(=O)[C@H](CC(C)C)NC(=O)[C@H](Cc1ccc(O)cc1)NC(=O)[C@H](CCCNC(=N)N)NC(=O)[C@H](CO)NC(=O)[C@H](Cc1ccc(O)cc1)NC(=O)[C@H](CC(=O)O)NC(=O)[C@H](CO)NC(=O)[C@@H](NC(=O)[C@H](Cc1ccccc1)NC(=O)[C@@H](NC(=O)CNC(=O)[C@H](Cc1c[nH]cn1)NC(=O)[C@@H](CO)NC(=O)[C@@H](N)Cc1c[nH]cn1)[C@@H](C)O)[C@@H](C)O)C(=O)N[C@@H](CCCNC(=N)N)C(=O)N[C@@H](C)C(=O)N[C@@H](CCCNC(=N)N)C(=O)N[C@@H](CC(=O)O)C(=O)N[C@@H](Cc1ccccc1)C(=O)N[C@H](C(=O)N[C@@H](CCC(=O)O)C(=O)N[C@@H](Cc1c[nH]c2ccccc12)C(=O)N[C@@H](CC(C)C)C(=O)N[C@@H](CC(C)C)C(=O)N[C@@H](CO)C(=O)N[C@@H](C)C(N)=O)[C@@H](C)CC)C(=O)O) [H-H-DSer-HGTFTSDYSRYLDE-K(Hexadecanoyl-isoGlu)-RARDFIEWLLSA-NH2 [Compound 11]]	0.09 nM	0.15 nM
HXQGTFTSDYSRYLDEKRARDFIEWLLSA (HELM PEPTIDE1{H.[Aib].Q.G.T.F.T.S.D.Y.S.R.Y.L.D.E.K.R.A.R.D.F.I.E.W.L.L.S.A.[am]}|PEPTIDE2{[CCCCCCCCCCCCCCCC(=O)[*:2]].[gGlu]}$PEPTIDE1,PEPTIDE2,17:R3-2:R2$$$V2.0; SMILES CCCCCCCCCCCCCCCC(=O)N[C@@H](CCC(=O)NCCCC[C@H](NC(=O)[C@H](CCC(=O)O)NC(=O)[C@H](CC(=O)O)NC(=O)[C@H](CC(C)C)NC(=O)[C@H](Cc1ccc(O)cc1)NC(=O)[C@H](CCCNC(=N)N)NC(=O)[C@H](CO)NC(=O)[C@H](Cc1ccc(O)cc1)NC(=O)[C@H](CC(=O)O)NC(=O)[C@H](CO)NC(=O)[C@@H](NC(=O)[C@H](Cc1ccccc1)NC(=O)[C@@H](NC(=O)CNC(=O)[C@H](CCC(N)=O)NC(=O)C(C)(C)NC(=O)[C@@H](N)Cc1c[nH]cn1)[C@@H](C)O)[C@@H](C)O)C(=O)N[C@@H](CCCNC(=N)N)C(=O)N[C@@H](C)C(=O)N[C@@H](CCCNC(=N)N)C(=O)N[C@@H](CC(=O)O)C(=O)N[C@@H](Cc1ccccc1)C(=O)N[C@H](C(=O)N[C@@H](CCC(=O)O)C(=O)N[C@@H](Cc1c[nH]c2ccccc12)C(=O)N[C@@H](CC(C)C)C(=O)N[C@@H](CC(C)C)C(=O)N[C@@H](CO)C(=O)N[C@@H](C)C(N)=O)[C@@H](C)CC)C(=O)O) [H-H-Aib-QGTFTSDYSRYLDE-K(Hexadecanoyl-isoGlu)-RARDFIEWLLSA-NH2 [Compound 9]]	0.1 nM	0.05 nM
